Measured values: PMC9541495, “Understanding the interaction of 14‐3‐3 proteins with hDMX and hDM2: a structural and biophysical study” (The Febs Journal, 2022)

T1: 14‐3‐3β (human, UniProt P31946 1-246)
T1 construct: 14-3-3 beta, human, full-length protein from the pProEx HTb-His-14-3-3 construct; Written as the protomer; tag removal is told only for the ∆C proteins; source: E. coli BL21(DE3), purified (Ni2+-NTA, dialysis)
T1 sequence (looked up): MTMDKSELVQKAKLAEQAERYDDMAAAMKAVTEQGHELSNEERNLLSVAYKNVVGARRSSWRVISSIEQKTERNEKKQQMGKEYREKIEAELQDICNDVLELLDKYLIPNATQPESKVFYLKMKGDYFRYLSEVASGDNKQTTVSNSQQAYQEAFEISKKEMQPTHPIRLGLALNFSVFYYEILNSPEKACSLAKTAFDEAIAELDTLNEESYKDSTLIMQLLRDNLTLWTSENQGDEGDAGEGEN

T2: 14‐3‐3τ (human, UniProt P27348 1-245)
T2 construct: 14-3-3 tau/theta, human, full-length protein from the pProEx HTb-His-14-3-3 construct; Written as the protomer; tag removal is told only for the ∆C proteins; also called τ/θ; source: E. coli BL21(DE3), purified (Ni2+-NTA, dialysis)
T2 sequence (looked up): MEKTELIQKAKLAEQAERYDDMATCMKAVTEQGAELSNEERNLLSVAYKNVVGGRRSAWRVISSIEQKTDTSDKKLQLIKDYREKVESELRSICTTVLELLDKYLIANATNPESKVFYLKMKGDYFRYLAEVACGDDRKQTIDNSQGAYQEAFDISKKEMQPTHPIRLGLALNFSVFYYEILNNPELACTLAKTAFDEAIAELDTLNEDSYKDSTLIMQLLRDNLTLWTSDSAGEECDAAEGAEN

T3: 14‐3‐3ζ (human, UniProt P63104 1-245)
T3 construct: 14-3-3 zeta, human, full-length protein from the pProEx HTb-His-14-3-3 construct; Written as the protomer; tag removal is told only for the ∆C proteins; source: E. coli BL21(DE3), purified (Ni2+-NTA, dialysis)
T3 sequence (looked up): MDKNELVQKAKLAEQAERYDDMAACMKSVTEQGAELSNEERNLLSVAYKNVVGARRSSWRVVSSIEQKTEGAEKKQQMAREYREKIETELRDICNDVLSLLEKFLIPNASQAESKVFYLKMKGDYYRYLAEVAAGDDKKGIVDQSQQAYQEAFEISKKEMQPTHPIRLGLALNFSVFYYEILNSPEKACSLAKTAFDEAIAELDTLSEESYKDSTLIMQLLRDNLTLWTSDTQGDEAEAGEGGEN

T4: 14‐3‐3σ (human, UniProt P31947 1-248)
T4 construct: 14-3-3 sigma, human, full-length protein from the pProEx HTb-His-14-3-3 construct (used in the FA assays); Written as the protomer; tag removal is told only for the ∆C proteins; source: E. coli BL21(DE3), purified (Ni2+-NTA, dialysis)
T4 sequence (looked up): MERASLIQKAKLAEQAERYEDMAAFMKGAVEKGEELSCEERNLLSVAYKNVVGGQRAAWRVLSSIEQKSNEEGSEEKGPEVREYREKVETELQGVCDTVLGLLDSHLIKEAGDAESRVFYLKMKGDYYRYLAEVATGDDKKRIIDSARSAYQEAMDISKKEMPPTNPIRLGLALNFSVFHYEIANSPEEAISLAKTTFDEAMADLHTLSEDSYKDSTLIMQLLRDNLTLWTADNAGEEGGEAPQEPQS

T5: 14‐3‐3ε (human, UniProt P62258 1-255)
T5 construct: 14-3-3 epsilon, human, full-length protein from the pProEx HTb-His-14-3-3 construct; Written as the protomer; tag removal is told only for the ∆C proteins; source: E. coli BL21(DE3), purified (Ni2+-NTA, dialysis)
T5 sequence (looked up): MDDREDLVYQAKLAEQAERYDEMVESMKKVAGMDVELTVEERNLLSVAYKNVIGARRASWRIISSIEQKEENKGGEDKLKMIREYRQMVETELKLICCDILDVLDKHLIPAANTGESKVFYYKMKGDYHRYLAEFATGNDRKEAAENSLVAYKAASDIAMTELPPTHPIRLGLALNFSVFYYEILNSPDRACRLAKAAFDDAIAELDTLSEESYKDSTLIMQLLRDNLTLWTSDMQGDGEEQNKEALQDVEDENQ

T6: FAM‐Ahx‐hDMX_(335‐373) ^pSer342/pSer367 (human, phosphoserine at 342 and at 367; N-terminal FAM-Ahx (5,6-carboxyfluorescein on an aminohexanoic acid linker); C-terminal amide)
T6 construct: hDMX (human double minute 4 protein, hDM4), human, residues 335-373; Tracer form used in the FA assays; source: synthetic peptide (Fmoc SPPS on Rink amide ProTide resin, HPLC purified)
T6 peptide: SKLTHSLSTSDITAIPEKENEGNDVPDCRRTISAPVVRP

B1: FAM‐Ahx‐hDM2_(160‐192) ^pSer166/pSer186 (peptide)
peptide: SRRRAISETEENSDELSGERQRKRHKSDSISLS
modifications: phosphoserine at 166 and at 186; N-terminal FAM-Ahx (5,6-carboxyfluorescein on an aminohexanoic acid linker); C-terminal amide
notes: hDM2 (human double minute 2 protein), human, residues 160-192; Tracer form used in the FA assays; source: synthetic peptide (Fmoc SPPS on Rink amide ProTide resin, HPLC purified)
B2: 14‐3‐3η (natural protein, human, UniProt Q04917 1-246, looked up)
chain: MGDREQLLQRARLAEQAERYDDMASAMKAVTELNEPLSNEDRNLLSVAYKNVVGARRSSWRVISSIEQKTMADGNEKKLEKVKAYREKIEKELETVCNDVLSLLDKFLIKNCNDFQYESKVFYLKMKGDYYRYLAEVASGEKKNSVVEASEAAYKEAFEISKEQMQPTHPIRLGLALNFSVFYYEIQNAPEQACLLAKQAFDDAIAELDTLNEDSYKDSTLIMQLLRDNLTLWTSDQQDEEAGEGN
notes: 14-3-3 eta, human, full-length protein from the pProEx HTb-His-14-3-3 construct; Captured on an NTA chip in SPR; source: E. coli BL21(DE3), purified (Ni2+-NTA, dialysis)

Legend:
14‐3‐3β = molecular target: T1, 14‐3‐3β; assay: fluorescence polarisation; fluorescence anisotropy, direct titration: 14-3-3 protein titrated (1/2 dilution series) against 50 nM FAM-Ahx tracer peptide; 10 mM HEPES, 150 mM NaCl, 0.1% Tween 20, 0.1% BSA, pH 7.4; 384 well plates, triplicates; protein concentration as 14-3-3 monomer; 1:1 fit, biphasic curves fitted as two separate 1:1 events (Kd1, Kd2); details: both partners purified
14‐3‐3τ = molecular target: T2, 14‐3‐3τ; assay: as above; details: both partners purified
14‐3‐3ζ = molecular target: T3, 14‐3‐3ζ; assay: as above; details: both partners purified
14‐3‐3σ = molecular target: T4, 14‐3‐3σ; assay: as above; details: both partners purified
14‐3‐3ε = molecular target: T5, 14‐3‐3ε; assay: as above; details: both partners purified
[1] = molecular target: the molecule itself; assay: AUC; sedimentation velocity; 14 μM 14-3-3η alone or with 7 μM or 14 μM hDMX pSer342/pSer367 peptide; 10 mM HEPES, 150 mM NaCl, pH 7.4; 25 °C; c(s) by SEDFIT
[2] = molecular target: T6, FAM‐Ahx‐hDMX_(335‐373) ^pSer342/pSer367; assay: fluorescence polarisation; fluorescence anisotropy, direct titration: 14-3-3 protein titrated (1/2 dilution series) against 50 nM FAM-Ahx tracer peptide; 10 mM HEPES, 150 mM NaCl, 0.1% Tween 20, 0.1% BSA, pH 7.4; 384 well plates, triplicates; protein concentration as 14-3-3 monomer; 1:1 fit, biphasic curves fitted as two separate 1:1 events (Kd1, Kd2); details: both partners purified
[3] = molecular target: B1; assay: as above; details: both partners purified

binding result (14‐3‐3β) | binding result (14‐3‐3τ) | binding result (14‐3‐3ζ) | binding result (14‐3‐3σ) | binding result (14‐3‐3ε) | Kd1 (first binding event) [2] | Kd1 (first binding event) [3] | Binder | stoichiometry N [1]
binds | binds | binds | binds | binds | – | – | B1 | –
– | – | – | – | – | 0.03 ± 0.006 µM | 0.05 ± 0.012 µM | B2 | 2
